Results published in patent US20200306373A1 (Hoffmann-La Roche, published 2020).

T1: murine ICOS (murine, UniProt Q9WVS0 21-200)
T1 sequence: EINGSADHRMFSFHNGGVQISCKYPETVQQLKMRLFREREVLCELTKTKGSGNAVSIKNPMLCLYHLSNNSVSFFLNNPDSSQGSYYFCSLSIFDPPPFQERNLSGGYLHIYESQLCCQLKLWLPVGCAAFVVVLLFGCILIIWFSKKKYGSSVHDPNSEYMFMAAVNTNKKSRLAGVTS

T2: human ICOS (human, UniProt Q9Y6W8 21-199)
T2 sequence: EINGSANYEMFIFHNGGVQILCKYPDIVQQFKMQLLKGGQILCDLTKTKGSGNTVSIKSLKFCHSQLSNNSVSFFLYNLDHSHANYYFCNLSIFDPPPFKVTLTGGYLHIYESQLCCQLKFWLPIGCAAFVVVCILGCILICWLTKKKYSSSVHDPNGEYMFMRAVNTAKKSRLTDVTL

T3: human CEA (human, UniProt P06731 35-685)
T3 construct: Endogenous CEA on MKN45 human gastric adenocarcinoma cells; also called Carcinoembryonic antigen; CEACAM5
T3 sequence: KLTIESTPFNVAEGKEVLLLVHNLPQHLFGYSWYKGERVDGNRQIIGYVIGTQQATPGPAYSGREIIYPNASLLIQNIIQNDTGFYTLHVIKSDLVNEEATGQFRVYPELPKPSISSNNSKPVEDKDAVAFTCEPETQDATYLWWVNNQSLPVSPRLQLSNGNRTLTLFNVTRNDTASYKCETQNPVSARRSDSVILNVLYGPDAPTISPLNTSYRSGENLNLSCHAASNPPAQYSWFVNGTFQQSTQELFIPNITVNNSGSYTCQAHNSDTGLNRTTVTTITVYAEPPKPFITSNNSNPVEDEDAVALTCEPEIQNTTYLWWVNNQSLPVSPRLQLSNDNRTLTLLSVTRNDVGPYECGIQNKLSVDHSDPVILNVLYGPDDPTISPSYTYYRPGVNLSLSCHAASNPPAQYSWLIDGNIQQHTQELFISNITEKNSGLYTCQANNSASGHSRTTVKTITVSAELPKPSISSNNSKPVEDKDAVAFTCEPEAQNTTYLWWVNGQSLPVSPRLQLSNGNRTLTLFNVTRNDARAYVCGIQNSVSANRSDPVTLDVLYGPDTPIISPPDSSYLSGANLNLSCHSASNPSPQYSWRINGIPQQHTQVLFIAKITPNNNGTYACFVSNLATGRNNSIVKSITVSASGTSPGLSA


Experiments:
murine FAP (mFAP) [1] = molecular target: T4, murine FAP (mFAP) (murine, UniProt P97321 1-761); experiment: flow cytometry on NIH/3T3-moFAP cl.34 cells
T4 construct: Expressed on 3T3-mFAP / NIH/3T3-moFAP cl.34 cells; also called mouse FAP; moFAP
Experimental: (§1) Briefly, adherent MKN45, NIH/3T3-moFAP or CHO-mICOS cells were detached using trypsin (Gibco, 25300-054), washed and 0.1 million cells were transferred into a 96-round bottom well-plate. […] Thereafter, cells were washed twice with cold PBS 0.1% BSA and further incubated for further 30 min at 4° C. with a labeled secondary antibody (PE-conjugated, #715-116-150 from Jackson Immuno Research Lab, diluted 1 to 50 in FACS buffer). Cells were washed with FACS buffer and the staining was fixed for 20 min at 4° C. in the dark, using 75 μl of 1% PFA in FACS buffer per well. Cells were washed twice with FACS Buffer and re-suspended in FACS Buffer for analysis.
(§2) Fluorescence was analyzed by FACS using a FACS Fortessa (Software FACS Diva). Binding curves and EC₅₀ values were obtained using GraphPadPrism6.

murine ICOS [2] = molecular target: T1, murine ICOS; experiment: cell-based or functional assay
murine ICOS [3] = molecular target: T1, murine ICOS; experiment: flow cytometry on CHO cells expressing murine ICOS
Experimental: as §1, §2

murine ICOS [4] = molecular target: T1, murine ICOS; experiment: flow cytometry on CHO cells stably overexpressing murine ICOS, PE secondary, axis % Binding to murine ICOS
Experimental: as §1, §2

murine FAP (mFAP) [5] = molecular target: T4, murine FAP (mFAP); experiment: flow cytometry on NIH/3T3-moFAP cells stably overexpressing murine FAP, PE secondary, axis % Binding to murine FAP
Experimental: as §1, §2

human ICOS = molecular target: T2, human ICOS; experiment: cell-based or functional assay
human CEA = molecular target: T3, human CEA; experiment: flow cytometry on MKN45 cells (human CEA), Alexa Fluor 647 anti-human Fc secondary, frequency of A647+ cells
Experimental: Briefly, human PBMCs, isolated from either Buffy Coats or fresh blood from healthy human donors (as described in Example 5.1) were incubated in a humidified incubator at 37° C. for 48 hours in RPMI1640 medium including […] PHA-L (Roche, #11249738001) and 100 units/ml recombinant human IL-2 (“Proleukin”, Novartis) at a cell density of 1 million cells per ml.
At the day of the assay, pre-activated PBMCs cells were harvested, washed with PBS, and 0.2 million cells in FACS buffer (PBS with 0.1% BSA) were plated per well of a 96-round bottom-well plate. Likewise, adherent MKN45 tumor cells were detached using trypsin (Gibco, 25300-054), washed and 0.15 million cells were transferred into the 96-round bottom well-plate. […] Cells were washed with FACS buffer and the staining was fixed for 20 min at 4° C. in the dark, using 75 µl of 1% PFA in FACS buffer per well. Cells were washed again two times with FACS Buffer and re-suspended in FACS Buffer for analysis.
as §2

T4 sequence (P97321 whole entry): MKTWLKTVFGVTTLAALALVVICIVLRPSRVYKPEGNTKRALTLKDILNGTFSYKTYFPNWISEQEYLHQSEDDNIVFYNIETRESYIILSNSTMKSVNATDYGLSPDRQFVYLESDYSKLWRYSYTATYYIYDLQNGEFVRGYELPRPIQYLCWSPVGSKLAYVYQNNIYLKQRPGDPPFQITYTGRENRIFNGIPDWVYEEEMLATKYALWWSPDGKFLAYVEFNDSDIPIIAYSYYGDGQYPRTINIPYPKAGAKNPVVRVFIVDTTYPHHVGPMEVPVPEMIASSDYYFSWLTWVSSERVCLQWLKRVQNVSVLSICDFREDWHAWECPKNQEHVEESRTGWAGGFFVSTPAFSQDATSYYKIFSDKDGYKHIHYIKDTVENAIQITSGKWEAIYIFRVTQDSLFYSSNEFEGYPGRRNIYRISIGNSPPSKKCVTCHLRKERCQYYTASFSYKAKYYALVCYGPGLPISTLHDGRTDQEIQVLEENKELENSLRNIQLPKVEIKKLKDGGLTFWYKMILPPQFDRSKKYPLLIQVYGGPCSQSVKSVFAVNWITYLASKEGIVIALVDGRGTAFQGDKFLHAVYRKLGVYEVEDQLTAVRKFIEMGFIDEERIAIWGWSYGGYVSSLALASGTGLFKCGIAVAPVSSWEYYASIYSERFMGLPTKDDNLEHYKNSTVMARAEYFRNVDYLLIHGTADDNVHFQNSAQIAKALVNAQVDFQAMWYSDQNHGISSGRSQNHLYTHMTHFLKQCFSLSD

| EC50 (murine FAP (mFAP) [1]) | Fold increase vs TCB only at 3 nM CEA- or FAP-ICOS, % CD69^+CD4^+ (murine ICOS [2]) | Fold increase vs TCB only at 3 nM CEA- or FAP-ICOS, % CD69^+CD8^+ (murine ICOS [2]) | Fold increase vs TCB only at 75 nM CEA- or FAP-ICOS, % CD69^+CD4^+ (murine ICOS [2]) | Fold increase vs TCB only at 75 nM CEA- or FAP-ICOS, % CD69^+CD8^+ (murine ICOS [2]) | EC50 (murine ICOS [3]) | EC50 (read off the curve) (murine ICOS [4]) | EC50 (read off the curve) (murine FAP (mFAP) [5]) | Fold increase vs TCB only at 200 pM CEA-ICOS (% CD69^+CD4^+), Donor 1 (D1) (human ICOS) | Fold increase vs TCB only at 200 pM CEA-ICOS (% CD69^+CD4^+), Donor 2 (D2) (human ICOS) | Fold increase vs TCB only at 1000 pM CEA-ICOS (% CD69^+CD4^+), Donor 1 (D1) (human ICOS) | Fold increase vs TCB only at 1000 pM CEA-ICOS (% CD69^+CD4^+), Donor 2 (D2) (human ICOS) | EC50 (read off the curve) (human CEA) | Binder |
| --- | --- | --- | --- | --- | --- | --- | --- | --- | --- | --- | --- | --- | --- |
| 2.86 nM | 1.1 fold | 2.3 fold | 1.1 fold | 2.4 fold | 2.88 nM | ~3 nM | ~3 nM | – | – | – | – | – | ICOS(16E09)-FAP(28H1) 2+1, FAP-targeted anti-murine ICOS_2+1, mIgG1 DAPG, bivalent murine ICOS (16E09), monovalent FAP (28H1) (bispecific antibody, Murine IgG1 DAPG DDKK; also called ICOS(16E09)-FAP(28H1) 2 + 1 muIgG1 DAPG) heavy 1: EVQLVQSGAEVKKPGESLKISCKGSGYSFTSYWIGWVRQMPGKGLEWMGIIYPGDSDTRYSPSFQGQVTISADKSISTAYLQWSSLKASDTAMYYCARSSGPYGLYLDYWGQGTLVTVSSAKTTPPSVYPLAPGSAAQTNSMVTLGCLVKGYFPEPVTVTWNSGSLSSGVHTFPAVLQSDLYTLSSSVTVPSSTWPSQTVTCNVAHPASSTKVDKKIVPRDCGCKPCICTVPEVSSVFIFPPKPKDVLTITLTPKVTCVVVAISKDDPEVQFSWFVDDVEVHTAQTKPREEQINSTFRSVSELPIMHQDWLNGKEFKCRVNSAAFGAPIEKTISKTKGRPKAPQVYTIPPPKEQMAKDKVSLTCMITNFFPEDITVEWQWNGQPAENYDNTQPIMDTDGSYFVYSDLNVQKSNWEAGNTFTCSVLHEGLHNHHTEKSLSHSPGGGGGSGGGGSGGGGSGGGGSEIVLTQSPGTLSLSPGERATLSCRASQSVSRSYLAWYQQKPGQAPRLLIIGASTRATGIPDRFSGSGSGTDFTLTISRLEPEDFAVYYCQQGQVIPPTFGQGTKVEIK heavy 2: EVQLVQSGAEVKKPGESLKISCKGSGYSFTSYWIGWVRQMPGKGLEWMGIIYPGDSDTRYSPSFQGQVTISADKSISTAYLQWSSLKASDTAMYYCARSSGPYGLYLDYWGQGTLVTVSSAKTTPPSVYPLAPGSAAQTNSMVTLGCLVKGYFPEPVTVTWNSGSLSSGVHTFPAVLQSDLYTLSSSVTVPSSTWPSQTVTCNVAHPASSTKVDKKIVPRDCGCKPCICTVPEVSSVFIFPPKPKDVLTITLTPKVTCVVVAISKDDPEVQFSWFVDDVEVHTAQTKPREEQINSTFRSVSELPIMHQDWLNGKEFKCRVNSAAFGAPIEKTISKTKGRPKAPQVYTIPPPKKQMAKDKVSLTCMITNFFPEDITVEWQWNGQPAENYKNTQPIMKTDGSYFVYSKLNVQKSNWEAGNTFTCSVLHEGLHNHHTEKSLSHSPGGGGGSGGGGSGGGGSGGGGSEVQLLESGGGLVQPGGSLRLSCAASGFTFSSHAMSWVRQAPGKGLEWVSAIWASGEQYYADSVKGRFTISRDNSKNTLYLQMNSLRAEDTAVYYCAKGWLGNFDYWGQGTLVTVSS light: not shown |
| 0.142 nM | 1.2 fold | 1.9 fold | 1.2 fold | 1.9 fold | 17.1 nM | – | ~0.1 nM | – | – | – | – | – | ICOS(16E09)-FAP(28H1) 1+1, FAP-targeted anti-murine ICOS_1+1, mIgG1 DAPG, monovalent murine ICOS (16E09), monovalent FAP (28H1) (bispecific antibody, Murine IgG1 DAPG DDKK; also called ICOS(16E09)-FAP(28H1) 1 + 1 muIgG1 DAPG) heavy 1: EVQLVQSGAEVKKPGESLKISCKGSGYSFTSYWIGWVRQMPGKGLEWMGIIYPGDSDTRYSPSFQGQVTISADKSISTAYLQWSSLKASDTAMYYCARSSGPYGLYLDYWGQGTLVTVSSAKTTPPSVYPLAPGSAAQTNSMVTLGCLVEGYFPEPVTVTWNSGSLSSGVHTFPAVLQSDLYTLSSSVTVPSSTWPSQTVTCNVAHPASSTKVDEKIVPRDCGCKPCICTVPEVSSVFIFPPKPKDVLTITLTPKVTCVVVAISKDDPEVQFSWFVDDVEVHTAQTKPREEQINSTFRSVSELPIMHQDWLNGKEFKCRVNSAAFGAPIEKTISKTKGRPKAPQVYTIPPPKEQMAKDKVSLTCMITNFFPEDITVEWQWNGQPAENYDNTQPIMDTDGSYFVYSDLNVQKSNWEAGNTFTCSVLHEGLHNHHTEKSLSHSP heavy 2: EIVLTQSPGTLSLSPGERATLSCRASQSVSRSYLAWYQQKPGQAPRLLIIGASTRATGIPDRFSGSGSGTDFTLTISRLEPEDFAVYYCQQGQVIPPTFGQGTKVEIKSSAKTTPPSVYPLAPGSAAQTNSMVTLGCLVKGYFPEPVTVTWNSGSLSSGVHTFPAVLQSDLYTLSSSVTVPSSTWPSQTVTCNVAHPASSTKVDKKIVPRDCGCKPCICTVPEVSSVFIFPPKPKDVLTITLTPKVTCVVVAISKDDPEVQFSWFVDDVEVHTAQTKPREEQINSTFRSVSELPIMHQDWLNGKEFKCRVNSAAFGAPIEKTISKTKGRPKAPQVYTIPPPKKQMAKDKVSLTCMITNFFPEDITVEWQWNGQPAENYKNTQPIMKTDGSYFVYSKLNVQKSNWEAGNTFTCSVLHEGLHNHHTEKSLSHSP light 1: not shown light 2: EVQLLESGGGLVQPGGSLRLSCAASGFTFSSHAMSWVRQAPGKGLEWVSAIWASGEQYYADSVKGRFTISRDNSKNTLYLQMNSLRAEDTAVYYCAKGWLGNFDYWGQGTLVTVSSASDAAPTVSIFPPSSEQLTSGGASVVCFLNNFYPKDINVKWKIDGSERQNGVLNSWTDQDSKDSTYSMSSTLTLTKDEYERHNSYTCEATHKTSTSPIVKSFNRNEC |
| – | – | – | – | – | – | – | – | 5.17 fold | 2.86 fold | 5.52 fold | 1.99 fold | ~0.5 nM | ICOS(JMab136)-CEA(MEDI-565) 2+1, CEA-ICOS_2+1 huIgG1 P329G LALA, bivalent ICOS (JMAb136), monovalent CEA (MEDI-565) (bispecific antibody, Human IgG1 P329G LALA, knob-into-hole; also called CEA(MEDI565)-ICOS(JMAb136)_2 + 1) heavy 1: not shown heavy 2: not shown light: DIQMTQSPSSVSASVGDRVTITCRASQGISRLLAWYQQKPGKAPKLLIYVASSLQSGVPSRFSGSGSGTDFTLTISSLQPEDFATYYCQQANSFPWTFGQGTKVEIKRTVAAPSVFIFPPSDRKLKSGTASVVCLLNNFYPREAKVQWKVDNALQSGNSQESVTEQDSKDSTYSLSSTLTLSKADYEKHKVYACEVTHQGLSSPVTKSFNRGEC |
